By stoichiometry N is commonly meant the number of molecules, sites or subunits per partner or assembly.

The series “crystal structure” concerns the molecule itself. Description: crystal structure.
Series [1] deals with the molecule itself.

Like-named read-outs stand apart in the source and are kept apart here.

B1: Escherichia coli dGTPase, wild type (enzyme)
chain: MAQIDFRKKINWHRRYRSPQGVKTEHEILRIFESDRGRIINSPAIRRLQQKTQVFPLERNAAVRTRLTHSMEVQQVGRYIAKEILSRLKELKLLEAYGLDELTGPFESIVEMSCLMHDIGNPPFGHFGEAAINDWFRQRLHPEDAESQPLTDDRCSVAALRLRDGEEPLNELRRKIRQDLCHFEGNAQGIRLVHTLMRMNLTWAQVGGILKYTRPAWWRGETPETHHYLMKKPGYYLSEEAYIARLRKELNLALYSRFPLTWIMEAADDISYCVADLEDAVEKRIFTVEQLYHHLHEAWGQHEKGSLFSLVVENAWEKSRSNSLSRSTEDQFFMYLRVNTLNKLVPYAAQRFIDNLPAIFAGTFNHALLEDASECSDLLKLYKNVAVKHVFSHPDVERLELQGYRVISGLLEIYRPLLSLSLSDFTELVEKERVKRFPIESRLFHKLSTRHRLAYVEAVSKLPSDSPEFPLWEYYYRCRLLQDYISGMTDLYAWDEYRRLMAVEQ
For the protein B1, the “stoichiometry N” value in “crystal structure” worked out at 6.

B2: Escherichia coli dGTPase H126A (enzyme)
chain: MAQIDFRKKINWHRRYRSPQGVKTEHEILRIFESDRGRIINSPAIRRLQQKTQVFPLERNAAVRTRLTHSMEVQQVGRYIAKEILSRLKELKLLEAYGLDELTGPFESIVEMSCLMHDIGNPPFGAFGEAAINDWFRQRLHPEDAESQPLTDDRCSVAALRLRDGEEPLNELRRKIRQDLCHFEGNAQGIRLVHTLMRMNLTWAQVGGILKYTRPAWWRGETPETHHYLMKKPGYYLSEEAYIARLRKELNLALYSRFPLTWIMEAADDISYCVADLEDAVEKRIFTVEQLYHHLHEAWGQHEKGSLFSLVVENAWEKSRSNSLSRSTEDQFFMYLRVNTLNKLVPYAAQRFIDNLPAIFAGTFNHALLEDASECSDLLKLYKNVAVKHVFSHPDVERLELQGYRVISGLLEIYRPLLSLSLSDFTELVEKERVKRFPIESRLFHKLSTRHRLAYVEAVSKLPSDSPEFPLWEYYYRCRLLQDYISGMTDLYAWDEYRRLMAVEQ
With B2, the “stoichiometry N” value in series [1] is 6.

B3: Escherichia coli dGTPase Y272A (enzyme)
chain: MAQIDFRKKINWHRRYRSPQGVKTEHEILRIFESDRGRIINSPAIRRLQQKTQVFPLERNAAVRTRLTHSMEVQQVGRYIAKEILSRLKELKLLEAYGLDELTGPFESIVEMSCLMHDIGNPPFGHFGEAAINDWFRQRLHPEDAESQPLTDDRCSVAALRLRDGEEPLNELRRKIRQDLCHFEGNAQGIRLVHTLMRMNLTWAQVGGILKYTRPAWWRGETPETHHYLMKKPGYYLSEEAYIARLRKELNLALYSRFPLTWIMEAADDISACVADLEDAVEKRIFTVEQLYHHLHEAWGQHEKGSLFSLVVENAWEKSRSNSLSRSTEDQFFMYLRVNTLNKLVPYAAQRFIDNLPAIFAGTFNHALLEDASECSDLLKLYKNVAVKHVFSHPDVERLELQGYRVISGLLEIYRPLLSLSLSDFTELVEKERVKRFPIESRLFHKLSTRHRLAYVEAVSKLPSDSPEFPLWEYYYRCRLLQDYISGMTDLYAWDEYRRLMAVEQ
Regarding B3, the “stoichiometry N” value in series [1] amounted to 6.

B4: Escherichia coli dGTPase E129A (enzyme)
chain: MAQIDFRKKINWHRRYRSPQGVKTEHEILRIFESDRGRIINSPAIRRLQQKTQVFPLERNAAVRTRLTHSMEVQQVGRYIAKEILSRLKELKLLEAYGLDELTGPFESIVEMSCLMHDIGNPPFGHFGAAAINDWFRQRLHPEDAESQPLTDDRCSVAALRLRDGEEPLNELRRKIRQDLCHFEGNAQGIRLVHTLMRMNLTWAQVGGILKYTRPAWWRGETPETHHYLMKKPGYYLSEEAYIARLRKELNLALYSRFPLTWIMEAADDISYCVADLEDAVEKRIFTVEQLYHHLHEAWGQHEKGSLFSLVVENAWEKSRSNSLSRSTEDQFFMYLRVNTLNKLVPYAAQRFIDNLPAIFAGTFNHALLEDASECSDLLKLYKNVAVKHVFSHPDVERLELQGYRVISGLLEIYRPLLSLSLSDFTELVEKERVKRFPIESRLFHKLSTRHRLAYVEAVSKLPSDSPEFPLWEYYYRCRLLQDYISGMTDLYAWDEYRRLMAVEQ
As to B4, the “stoichiometry N” value in series [1] was 6.
